Patent US20250051443A1 (NATIONAL RESEARCH COUNCIL OF CANADA, published 2025)
Residue numbers refer to the chain shown, from its start. Like-named read-outs stand apart in the source and are kept apart here.

B1: F332-10B6 (antibody, mouse IgG2a, V domains shown)
VH: QVQLQQPGAELGKPGTSVNLSCKASGYTFTDYWIHWVKQRPGQGLEWIGNINPNSGDTNYNENFKTKATLTVDRSSSTAYMQLSSLTSEDSAVYYCTRDISGQYYFDFWGQGTTLTVSS
VL: DIVMSQSPSSLAVSAGEKVTMSCKSSQSLLNSRTRKNYLAWYQQKPGQSPKLLIYWASTRESGVPDRFTGSGSGTDFTLTISSVQAEDLAVYYCIQSYNLRTFGGGTKLEIK
notes: also called F332-10B6-2; F332-12B5-1
B2: F332-13B4 (antibody, mouse IgG2a, V domains shown)
VH: QVQLQQSGPELVKPGASVKISCKASGYSFTNSYVHWVKQTPGQGLEWIGWIYPGSTNIKYNEKFKGKATLTADTSSSTVYMQLSSLTSEDSAVYFCARDGSYFFDYWGQGTTLTVSS
VL: B1 VL with S22T, I95K, N99I
notes: also called F332-13B4-2

Legend:
human CD3 [1] = target: T1, human CD3 (human, UniProt P07766 23-207; P09693 23-182; P04234 22-171); test: flow cytometry, AF488-labeled mAb on CD3+ Jurkat cells
human CD3 [2] = target: T1, human CD3; test: flow competition on Jurkat, 100 nM unlabeled mAb; competitor AF488-UCHT1 5 nM (self)
human CD3 [3] = target: T1, human CD3; test: flow competition on Jurkat, 100 nM unlabeled mAb; competitor AF488-SK7 1.5 nM
Procedure: (§1) In order to evaluate whether anti-CD3 monoclonal antibodies bind to the same epitope region, flow cytometry competition experiments on Jurkat cells were performed.
(§2) To that effect, a fixed concentration of the indicated AF488-labeled mAb were incubated with 100 nM of unlabeled monoclonal antibodies to assess if their binding capacity was impaired in presence of unlabeled mAbs. […] The AF488-OKT3 mIgG2b was labeled in-house using AlexaFluor488 protein labelling kit (Invitrogen #A10235) following manufacturer's instruction. The free dye removal step was done using Zeba™ Spin Desalting Columns, 7K MWCO (Thermo Scientific #89890). The final product was analyzed by UPLC-SEC to ensure the integrity of the labeled mAb.

human CD3 [4] = target: T1, human CD3; test: flow competition on Jurkat, 100 nM unlabeled mAb; competitor AF488-SP34.2 20 nM
Procedure: as §1, §2

human CD3 [5] = target: T1, human CD3; test: flow cytometry, negative control on CD3+ Jurkat cells
human CD3 [6] = target: T1, human CD3; test: apparent KD (KDapp), flow cytometry titration of the AF488-labeled mAb on Jurkat cells
human CD3 [7] = target: T1, human CD3; test: flow competition on Jurkat, 100 nM unlabeled mAb; competitor AF488-SP34.2 20 nM (self)
Cynomolgus CD3 = target: T2, Cynomolgus CD3 (Cynomolgus, UniProt Q95LI5 22-198; Q95LI7 23-181; Q95LI8 22-171); test: apparent KD (KDapp), flow cytometry titration on cynomolgus HSC-F T cell line
T2 construct: whole, on cells; also called CD3 on Cynomolgus PBMCs; CD3 on HSC-F Cynomolgus T cell line
Procedure: To characterize potential cross-reactivity of the anti-human CD3 mAbs to NHP T cells, dose response flow cytometry titration studies were performed on both freshly obtained Cynomolgus PBMCs (Comparative Medicine and Animal Resources Centre—McGill University) or the Cynomolgus derived T cell line, HSC-F (Non-Human Primate Reagent Resource—NIH). Binding studies on fresh Cynomolgus PBMCs was performed on a subset of anti-CD3 mAbs (FIG. 4) whereas the Herpesvirus saimiri immortalized Cynomolgus T cell line HSC-F was employed for further evaluations (FIGS. 5A to 5C). KDapp values were calculated using a non-linear regression model of one-site binding with Hill slope (GraphPad Prism) and tabulated (Table 3b). Similar KDapp values for anti-CD3 mAb 1E2 obtained from binding to fresh Cynomolgus PBMCs (KDapp=0.28 nM) or the HSC-F T cell line (KDapp=0.39 nM) indicated the HSC-F cell line was a suitable surrogate for ex vivo NHP T cells.
HSC-F T cells obtained from the Non-Human Primate Reagent Resource (NIH) were maintained in culture in RPMI media containing 20% FBS and 40 IU/mL recombinant human IL2. 100K HSC-F cells in logarithmic cell growth were treated with graded doses of the anti-CD3 mAbs starting at 100 nM in staining buffer (SB; PBS/1% BSA/0.01% NaN3) for 2 hours at 4° C. in 96 w V-bottom plates. Following plate washing with SB, the cell pellets were resuspended with 25 μL of goat (Fab′)₂ anti-mouse IgG (H+L)− APC secondary antibody (final 5 μg/mL), incubated for 30 minutes at 4° C., followed by flow cytometry analysis. The commercial NHP cross-reactive SP34.2 anti-CD3 mAb (BD Biosciences), recombinant anti-human OKT-3 IgG2b (in house produced) and non-specific mIgG were employed as controls. 20K live events were acquired on a BD LSRFortessa flow analyzer and mean fluorescence intensities (MFI) calculated after subtraction of secondary antibody alone values. Using GraphPad Prism software, the data were analyzed using a one site specific binding with Hill slope non-linear regression model to calculate KDapp and BMax values (See Table 2).

human CD3 [8] = target: T1, human CD3; test: flow competition on Jurkat, 100 nM unlabeled mAb; competitor AF488-UCHT1 5 nM
Procedure: as §1, §2

human CD3 [9] = target: T1, human CD3; test: apparent KD (KDapp), flow cytometry titration on purified primary human T cells
Procedure: The binding characteristics of the purified anti-CD3 mAbs were assessed in titration studies on purified human primary T cells from different donor samples. Fresh ex vivo peripheral blood mononuclear cells (PBMCs) were obtained via density centrifugation over Ficoll-Paque using standard procedures and untouched T cell fractions obtained from PBMCs by negative pan-T cell selection and magnetic cell sorting. Starting from 300 nM concentrations of the anti-CD3 mAbs, eight point binding curves were generated from the resultant mean fluorescence intensity (MFI) values obtained through detection of labelled secondary antibody to bound CD3 in flow cytometry experiments (FIGS. 3A and 3B). Both commercial mouse anti-human CD3 mAb (OKT-3; Biolegend) and an in house generated IgG1 version of OKT-3 were employed as positive controls together with a non-specific mouse IgG serving as a negative binding control. Following curve fit analysis using one-site specific binding with Hill slope, the KDapp (concentration needed to achieve a half-maximum binding at equilibrium) for each mAb was calculated (Table 2).
Eight point binding titrations were performed with the anti-CD3 mAbs starting at either 300 or 100 nM on freshly purified human T cells obtained through negative selection from PBMC fractions. Briefly, 1×10⁵ human T cells (50 μL of staining buffer (SB; PBS/1% BSA/0.01% NaN3) were incubated with graded dilutions of the anti-CD3 mAbs in SB ([…]) for 2 hours at 4° C. in 96 w U-bottom plates, followed by plate washing with SB ([…]). Cell pellets were resuspended with 25 μL of a 0.25 mg/mL solution of the goat (Fab′)₂ anti-mouse IgG (H+L)− APC secondary antibody in SB, incubated at 4° C. (30 min.), washed 1× with SB, and resuspended for flow analysis. Recombinant anti-human OKT-3 IgG2b (in house produced) and non-specific mIgG were employed similarly as positive and negative controls respectively. 10K live events were acquired on a BD LSRFortessa flow analyzer and mean fluorescence intensities (MFI) calculated after subtraction of secondary antibody alone values. Using GraphPad Prism software, the data were analyzed using a one site specific binding with Hill slope non-linear regression model to calculate KDapp and BMax values (See Table 2).

human CD3 [10] = target: T1, human CD3; test: flow competition on Jurkat, 100 nM unlabeled mAb; competitor AF488-SK7 1.5 nM (self)
human CD3 [11] = target: T1, human CD3; test: cell-based or functional assay
human CD3 [12] = target: T1, human CD3; test: apparent KD (KDapp), flow cytometry titration on Jurkat cells
Procedure: Unless otherwise stated, all media are kept are 4° C. and all incubations are performed on wet ice. Exponentially growing Jurkat cells were centrifuged and resuspended in complete medium at a cell density of 2×10⁶ cells/mL. Fifty μL/well of cells were distributed in a polypropylene v-bottom 96 well plate and serial 1/3 dilutions of purified mAbs starting at 300 nM were added and incubated for 2 hours. Cells were washed twice by centrifugation and further incubated with a FITC labeled F(ab′)2 goat anti-mouse antibody (Fc specific, #115-096-071, Jackson Immunoresearch, Cedarlane, Burlington, ON) for an hour. Cells were washed and re-suspended in medium containing Propidium iodide to exclude dead cells from analysis. Samples were filtered through a 60 μm nylon mesh filter plate (Millipore, Ireland) to remove cell aggregates. Flow cytometry analyses were performed on 2,000 viable single-cells events gated on forward scattering, side scattering parameters and propidium iodide dye exclusion using a BD-LSRFortessa flow cytometer (Becton-Dickinson Biosciences, CA, USA) and a standard filter set using BD FACSDiva™ acquisition software, according to manufacturer's instructions.

human CD3 [13] = target: T1, human CD3; test: flow competition on Jurkat, 100 nM unlabeled mAb; competitor AF488-OKT-3 mIgG2b 1.5 nM (self)
human CD3 [14] = target: T1, human CD3; test: cell-based or functional assay; remark: listed apart in the source
human CD3 [15] = target: T1, human CD3; test: flow cytometry, hybridoma supernatant on CD3+ Jurkat cells
Procedure: Cells were stained with either negative control mouse IgG (Jackson Immunoresearch cat #115-000-003) or an anti-GFP 3E6 mAb supernatant or tested hybridoma supernatant. Specific binding was reflected by the increase in the mean fluorescent intensity of antibody binding to Jurkat T-cells (FIGS. 1A to 1F, grey histograms) compared to the Jurkat CD3 negative cell line J.RT3-T3.5 (FIGS. 1A to 1F, open histograms). AF488 labeled positive control mAb OKT3 was also analyzed.

human CD3 [16] = target: T1, human CD3; test: flow competition on Jurkat, 100 nM unlabeled mAb; competitor AF488-OKT-3 mIgG2b 1.5 nM
Procedure: as §1, §2

Molecule	MFI (human CD3 [1]) [MFI]	% residual fluorescence of labeled mAb (human CD3 [3]) [%]	% residual fluorescence of labeled mAb (human CD3 [4]) [%]	Kd (Cynomolgus CD3) [nM]	% residual fluorescence of labeled mAb (human CD3 [8]) [%]	Kd (human CD3 [9]) [nM]	Kd (human CD3 [12]) [nM]	also measured
UCHT1 (antibody)	293	7	54	–	–	–	–	% residual fluorescence of labeled mAb (human CD3 [2]): 8%
Mouse IgG (antibody)	–	–	–	–	–	–	–	MFI (human CD3 [5]): 34 MFI
SP34.2 (antibody)	–	29	–	1.29	49	1.77	–	Kd (human CD3 [6]): 10.8 nM; % residual fluorescence of labeled mAb (human CD3 [7]): 10%
SK7 (antibody)	311	–	58	–	14	–	–	% residual fluorescence of labeled mAb (human CD3 [10]): 9%
OKT-3 AF488 (antibody)	265	–	–	–	–	–	–	–
recombinant mouse IgG2b OKT-3 produced in-house (antibody)	–	6	26	–	11	0.03	0.13 to 0.23	% max ref. OKT3 (dTomato activation) (human CD3 [11]): 105%; EC50 of dTomato induction (CD69 promoter), Jurkat-CD69-dTomato cells, 24 h (human CD3 [11]): 0.17 µg/mL; IC50, indirect ADC surrogate growth inhibition (anti-mouse-DM1) on Jurkat cells (human CD3 [11]): 0.057 nM; Span, indirect ADC surrogate growth inhibition on Jurkat cells (human CD3 [11]): 91%; % residual fluorescence of labeled mAb (human CD3 [13]): 8%
B1	–	56	32	2	80	30.1	3.7	% max ref. OKT3 (dTomato activation) (human CD3 [14]): 60%; EC50 of dTomato induction (CD69 promoter), Jurkat-CD69-dTomato cells, 24 h (human CD3 [14]): 0.23 µg/mL; MFI (human CD3 [15]): 143 MFI; % residual fluorescence of labeled mAb (human CD3 [16]): 94%
B2	–	43	8	0.64	72	0.05	0.6	% max ref. OKT3 (dTomato activation) (human CD3 [14]): 90%; EC50 of dTomato induction (CD69 promoter), Jurkat-CD69-dTomato cells, 24 h (human CD3 [14]): 0.47 µg/mL; MFI (human CD3 [15]): 373 MFI; % residual fluorescence of labeled mAb (human CD3 [16]): 79%
